Each block holds one binder with its values, some of them ahead of it.
Columns and labels:
[1] = target: T1, Nanog transcription factor (NANOG), SPR ligand (UniProt Q9H9S0 1-305, limits assumed); test: SPR, peptide as analyte, NANOG as ligand
T1 construct: the NANOG preparation is not described

[2] = target: T2, Focal Adhesion Kinase (FAK), SPR ligand (UniProt Q05397 1-1052, limits assumed); test: SPR, peptide as analyte, FAK as ligand
T2 construct: the FAK preparation is not described

[3] = target: Connexin 26 (Cx26), endogenous or overexpressed in breast cell lysates (UniProt P29033 1-226); test: reciprocal co-immunoprecipitation (anti-Cx26, anti-FAK) from bulk MCF7 and MCF10A lysates, western blot; non-immune IgG as control

T1 sequence (Q9H9S0 whole entry): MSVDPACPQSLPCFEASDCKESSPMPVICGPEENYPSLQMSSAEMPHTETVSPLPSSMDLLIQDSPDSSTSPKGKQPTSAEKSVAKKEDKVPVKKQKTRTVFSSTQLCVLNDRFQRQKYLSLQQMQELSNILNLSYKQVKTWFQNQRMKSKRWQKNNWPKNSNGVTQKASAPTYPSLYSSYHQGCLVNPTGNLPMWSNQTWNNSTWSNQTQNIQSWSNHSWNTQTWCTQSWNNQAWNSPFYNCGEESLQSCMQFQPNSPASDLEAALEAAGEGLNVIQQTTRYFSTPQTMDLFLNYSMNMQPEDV

Kd [1]: 0.17 µM | Kd [2]: 14.9 µM
Binder: RYCSGKSKKPV (also called cytoplasmic tail of Cx26) [Cx26 blocking peptide 5 (C-terminus)]

binding result [3]: binds
B1: Focal adhesion kinase (FAK), endogenous in breast cell lysates (enzyme)
chain: AAAYLDPNLNHTPNSSTKTHLGTGMERSPGAMERVLKVFHYFESNSEPTTWASIIRHGDATDVRGIIQKIVDSHKVKHVACYGFRLSHLRSEEVHWLHVDMGVSSVREKYELAHPPEEWKYELRIRYLPKGFLNQFTEDKPTLNFFYQQVKSDYMLEIADQVDQEIALKLGCLEIRRSYWEMRGNALEKKSNYEVLEKDVGLKRFFPKSLLDSVKAKTLRKLIQQTFRQFANLNREESILKFFEILSPVYRFDKECFKCALGSSWIISVELAIGPEEGISYLTDKGCNPTHLADFTQVQTIQYSNSEDKDRKGMLQLKIAGAPEPLTVTAPSLTIAENMADLIDGYCRLVNGTSQSFIIRPQKEGERALPSIPKLANSEKQGMRTHAVSVSETDDYAEIIDEEDTYTMPSTRDYEIQRERIELGRCIGEGQFGDVHQGIYMSPENPALAVAIKTCKNCTSDSVREKFLQEALTMRQFDHPHIVKLIGVITENPVWIIMELCTLGELRSFLQVRKYSLDLASLILYAYQLSTALAYLESKRFVHRDIAARNVLVSSNDCVKLGDFGLSRYMEDSTYYKASKGKLPIKWMAPESINFRRFTSASDVWMFGVCMWEILMHGVKPFQGVKNNDVIGRIENGERLPMPPNCPPTLYSLMTKCWAYDPSRRPRFTELKAQLSTILEEEKAQQEERMRMESRRQATVSWDSGGSDEAPPKPSRPGYPSPRSSEGFYPSPQHMVQTNHYQVSGYPGSHGITAMAGSIYPGQASLLDQTDSWNHRPQEIAMWQPNVEDSTVLDLRGIGQVLPTHLMEERLIRQQQEMEEDQRWLEKEERFLKPDVRLSRGSIDREDGSLQGPIGNQHIYQPVGKPDPAAPPKKPPRPGAPGHLGSLASLSSPADSYNEGVKLQPQEISPPPTANLDRSNDKVYENVTGLVKAVIEMSSKIQPAPPEEYVPMVKEVGLALRTLLATVDETIPLLPASTHREIEMAQKLLNSDLGELINKMKLAQQYVMTSLQQEYKKQMLTAAHALAVDAKNLLDVIDQARLKMLGQTRPH
notes: Protein from cell lysates in co-immunoprecipitation; also called total FAK
